Results reported in patent publication US11491212.

B1: FIXa-R338E/R403E/E410N (protein)
chain 1: not shown
chain 2: not shown
B2: FIXa Y155F/K228N/K247N/N249S (protein)
chain 1: not shown
chain 2: not shown
B3: FIXa-D203N/F205T/K228N (protein)
chain 1: not shown
chain 2: not shown
B4: FIXa R318Y/R338E/T412A (protein)
chain 1: not shown
chain 2: not shown
B5: FIXa R318Y/R338E/R403E/E410N/T412V (protein)
chain 1: not shown
chain 2: not shown
B6: FIXa-Y155F/R338E/R403E/E410N (protein)
chain 1: not shown
chain 2: not shown
B7: FIXa K228N/K247N/N249S/R318Y/R338E/R403E/E410N (protein)
chain 1: not shown
chain 2: not shown
B8: FIXa R318Y/R338E/R403E/E410N/T412A (protein)
chain 1: not shown
chain 2: not shown
B9: FIXa R318Y/R338E/E410N/T412V (protein)
chain 1: not shown
chain 2: not shown
B10: FIXa-Y155F/R318Y/R338E/R403E (protein)
chain 1: not shown
chain 2: not shown

Target: Factor X (FX), P00742
Sequence (P00742 whole entry, looked up): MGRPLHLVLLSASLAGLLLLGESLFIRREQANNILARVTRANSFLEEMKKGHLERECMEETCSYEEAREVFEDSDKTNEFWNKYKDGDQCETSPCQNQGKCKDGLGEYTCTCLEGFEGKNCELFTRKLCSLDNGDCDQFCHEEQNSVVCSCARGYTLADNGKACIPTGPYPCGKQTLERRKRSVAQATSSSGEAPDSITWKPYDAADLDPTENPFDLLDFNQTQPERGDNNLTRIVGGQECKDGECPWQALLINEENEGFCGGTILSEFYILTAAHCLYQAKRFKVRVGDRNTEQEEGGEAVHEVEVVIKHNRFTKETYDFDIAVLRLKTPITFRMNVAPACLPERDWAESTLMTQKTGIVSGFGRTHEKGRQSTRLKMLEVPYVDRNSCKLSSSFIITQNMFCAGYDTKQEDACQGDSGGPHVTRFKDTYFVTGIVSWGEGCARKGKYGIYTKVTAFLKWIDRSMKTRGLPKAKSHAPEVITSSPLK

B1 and B3 are within 1.5-fold of each other in KM: 0.0367 µM for the first, 0.0399 µM for the second.

For B10, the KM was 0.0671 µM.

B1 and B3 are within 1.5-fold of each other in KM for FX activation by FIXa in the Xase complex (FVIIIa/PC-PS/Ca2+), fluorogenic Spectrafluor FXa assay: 0.0455 µM for the first, 0.0399 µM for the second.

Going from B1 to B3, the kcat falls from 5.8 s⁻¹ to 0.6 s⁻¹ (9.7-fold).

B6 and B10 are within 1.5-fold of each other in kcat: 5.9 s⁻¹ for the first, 5.1 s⁻¹ for the second.

Going from B2 to B4, the kcat (Catalytic activity of FIXa variants) rises from 4.3 s⁻¹ to 7 s⁻¹ (1.6-fold).

B5 and B7 are within 1.5-fold of each other in kcat (Catalytic activity of FIXa variants): 7.9 s⁻¹ for the first, 6.1 s⁻¹ for the second.

B8 and B9 are within 1.5-fold of each other in kcat (Catalytic activity of FIXa variants): 8.4 s⁻¹ for the first, 6.3 s⁻¹ for the second.
